Test results as given in article PMC2662490.

Target: FXR1P Nt-KH2–His6 (human)
Assay: SAXS

Substance: FXR1P Nt-KH2–His6 (domain or fragment)
- stoichiometry N: 2
